Patent US20140193401A1 (published 2014)

Biological target: pertussis toxin holotoxin (Bordetella pertussis, UniProt P04977 35-269; P04978 31-226; P04979 32-227; P0A3R5 43-152; P04981 36-133)
Assay: cell-based or functional assay

B1: 1B7 Fab (Fab)
chain: DIQMTQSPALMSASPGEKVTMTCSASSSVSFMYWYQQKPRSSPKPWIYLTSNLPSGVPARFSGSGSGTSYSLTISSMEAEDAATYYCQQWSSHPPTFGSGTKLEIKRGGGGSGGGGSGGGGSGGGGSEVQLQQSGSELVRPGASVKLSCKASGYKFTSYWMHWVKQRPGQGLEWIGNIFPGSGSTNYDEKFNSKATLTVDTSSNTAYMQLSSLTSEDSAVYYCTRWLSGAYFDYWGQGTTLTVSSASGA
In Vitro Neutralization (nM), minimum protective concentration, CHO clustering assay: 42 nM
